Measured values from paper PMC6770890.

Biological target: T1, H-NS (Salmonella enterica serovar Typhimurium ATCC 14028s) (UniProt A0A0F6B244)
T1 sequence: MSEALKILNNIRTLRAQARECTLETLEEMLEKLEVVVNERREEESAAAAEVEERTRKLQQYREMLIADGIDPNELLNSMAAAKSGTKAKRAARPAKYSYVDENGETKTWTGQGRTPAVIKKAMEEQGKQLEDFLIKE
Experiment: EMSA
Conditions: 20 mM Tris-HCl, 1 mM EDTA, 100 ug/mL BSA, 1 mM DTT, 10% glycerol, 80 mM NaCl, 25 C, 30 min; 50 ng DNA in 20 uL, protein 0-9.76 uM; pH 7.5 or 5.5 in Fig. 5B …

Sequence | binding
CAAAGACGCCGAGAATGTGAAAAAATTCGTTCAGGCTTATCAGTCTGATGAAGTGTACGAAGCCGCAAATAAAGTTTTTAATGGCGGCGCGGTGAAAGGCTGGTAAGTTTTAGGCTGATTCCACAATCTGTAATATTATTCAGGACGGGCTATTGCCCGTCTTGTCATTTATGCAAGCTCCTGATTCAATATCTGGC (double strand) [yaeB promoter (PyaeB)] | binds
GCCGTGCTGTTCACTCATCCGCGCCACCAGCCGGTCAAGGTGCAGACGGGCAATCACGCCACGCGACGTTTCGTCCAGCGGCAGGTAAGGGATCACCGTCACGCGGCCCAGAAATGCCGCCGGGAAATGCTTGCGCAATTCCGGCATTAGCGCCTCTTTAAGCCCCGTAGCATCGGGCATTAAGGCCGGATCTTCACACATCTGGCTGATGAGGTCGGAACCCACGTTGGTGGTGAGTAATAGCGTGGTG (double strand) [STM0272 fragment] | no binding
